Assay results published in the RNAGym collection of RNA variant scans (doi:10.7554/elife.80360).

B1: Hammerhead Ribozyme (parent)
chain: ACCGGAUGUGCUUUCCGGUCUGAUGAGUCCGUGAGGACGAAACAG

Variants of: B1
Assay: self-cleavage, relative activity (ratio to wild type); higher = more cleavage; co-transcriptional

| Variant | self-cleavage |
| --- | --- |
| ACCGUAUGUGCUUUCCGGUCUCAUGAGUCCGUGAGGACGAAACAG [G5U G22C] | 0.251 |
| ACCGUAUGUGCUUUCCGGUCUUAUGAGUCCGUGAGGACGAAACAG [G5U G22U] | 0.304 |
| ACCGUAUGUGCUUUCCGGUCUGAUAAGUCCGUGAGGACGAAACAG [G5U G25A] | 0.351 |
| ACCGUAUGUGCUUUCCGGUCUGAUCAGUCCGUGAGGACGAAACAG [G5U G25C] | 0.301 |
| ACCGUAUGUGCUUUCCGGUCUGAUUAGUCCGUGAGGACGAAACAG [G5U G25U] | 0.355 |
| ACCGUAUGUGCUUUCCGGUCUGAUGAAUCCGUGAGGACGAAACAG [G5U G27A] | 0.504 |
| ACCGUAUGUGCUUUCCGGUCUGAUGACUCCGUGAGGACGAAACAG [G5U G27C] | 0.491 |
| ACCGUAUGUGCUUUCCGGUCUGAUGAUUCCGUGAGGACGAAACAG [G5U G27U] | 0.366 |
| ACCGUAUGUGCUUUCCGGUCUGAUGAGUCCAUGAGGACGAAACAG [G5U G31A] | 1.25 |
| ACCGUAUGUGCUUUCCGGUCUGAUGAGUCCCUGAGGACGAAACAG [G5U G31C] | 1.03 |
| ACCGUAUGUGCUUUCCGGUCUGAUGAGUCCUUGAGGACGAAACAG [G5U G31U] | 1.2 |
| ACCGUAUGUGCUUUCCGGUCUGAUGAGUCCGUAAGGACGAAACAG [G5U G33A] | 0.913 |
| ACCGUAUGUGCUUUCCGGUCUGAUGAGUCCGUCAGGACGAAACAG [G5U G33C] | 0.813 |
| ACCGUAUGUGCUUUCCGGUCUGAUGAGUCCGUUAGGACGAAACAG [G5U G33U] | 1.06 |
| ACCGUAUGUGCUUUCCGGUCUGAUGAGUCCGUGAAGACGAAACAG [G5U G35A] | 0.476 |
| ACCGUAUGUGCUUUCCGGUCUGAUGAGUCCGUGACGACGAAACAG [G5U G35C] | 0.361 |
| ACCGUAUGUGCUUUCCGGUCUGAUGAGUCCGUGAUGACGAAACAG [G5U G35U] | 0.516 |
| ACCGUAUGUGCUUUCCGGUCUGAUGAGUCCGUGAGAACGAAACAG [G5U G36A] | 0.417 |
| ACCGUAUGUGCUUUCCGGUCUGAUGAGUCCGUGAGCACGAAACAG [G5U G36C] | 0.32 |

| Variant | self-cleavage |
| --- | --- |
| ACCGUAUGUGCUUUCCGGUCUGAUGAGUCCGUGAGUACGAAACAG [G5U G36U] | 0.327 |
| ACCGUAUGUGCUUUCCGGUCUGAUGAGUCCGUGAGGACAAAACAG [G5U G39A] | 0.339 |
| ACCGUAUGUGCUUUCCGGUCUGAUGAGUCCGUGAGGACCAAACAG [G5U G39C] | 0.306 |
| ACCGUAUGUGCUUUCCGGUCUGAUGAGUCCGUGAGGACUAAACAG [G5U G39U] | 0.33 |
| ACCGUAUGUGCUUUCCGGUCUGAUGAGUCCGUGAGGACGAAACAA [G5U G45A] | 0.431 |
| ACCGUAUGUGCUUUCCGGUCUGAUGAGUCCGUGAGGACGAAACAC [G5U G45C] | 0.443 |
| ACCGUAUGUGCUUUCCGGUCUGAUGAGUCCGUGAGGACGAAACAU [G5U G45U] | 0.529 |
| ACCGUAAGUGCUUUCCGGUCUGAUGAGUCCGUGAGGACGAAACAG [G5U U7A] | 0.87 |
| ACCGUACGUGCUUUCCGGUCUGAUGAGUCCGUGAGGACGAAACAG [G5U U7C] | 0.716 |
| ACCGUAGGUGCUUUCCGGUCUGAUGAGUCCGUGAGGACGAAACAG [G5U U7G] | 0.708 |
| ACCGUAUGAGCUUUCCGGUCUGAUGAGUCCGUGAGGACGAAACAG [G5U U9A] | 0.723 |
| ACCGUAUGCGCUUUCCGGUCUGAUGAGUCCGUGAGGACGAAACAG [G5U U9C] | 0.881 |
| ACCGUAUGGGCUUUCCGGUCUGAUGAGUCCGUGAGGACGAAACAG [G5U U9G] | 0.523 |
| ACCGUAUGUGCAUUCCGGUCUGAUGAGUCCGUGAGGACGAAACAG [G5U U12A] | 1.1 |
| ACCGUAUGUGCCUUCCGGUCUGAUGAGUCCGUGAGGACGAAACAG [G5U U12C] | 0.804 |
| ACCGUAUGUGCGUUCCGGUCUGAUGAGUCCGUGAGGACGAAACAG [G5U U12G] | 0.806 |
| ACCGUAUGUGCUAUCCGGUCUGAUGAGUCCGUGAGGACGAAACAG [G5U U13A] | 1.37 |
| ACCGUAUGUGCUCUCCGGUCUGAUGAGUCCGUGAGGACGAAACAG [G5U U13C] | 1.15 |
| ACCGUAUGUGCUGUCCGGUCUGAUGAGUCCGUGAGGACGAAACAG [G5U U13G] | 1.02 |

| Variant | self-cleavage |
| --- | --- |
| ACCGUAUGUGCUUACCGGUCUGAUGAGUCCGUGAGGACGAAACAG [G5U U14A] | 1.24 |
| ACCGUAUGUGCUUCCCGGUCUGAUGAGUCCGUGAGGACGAAACAG [G5U U14C] | 0.837 |
| ACCGUAUGUGCUUGCCGGUCUGAUGAGUCCGUGAGGACGAAACAG [G5U U14G] | 1.29 |
| ACCGUAUGUGCUUUCCGGACUGAUGAGUCCGUGAGGACGAAACAG [G5U U19A] | 0.29 |
| ACCGUAUGUGCUUUCCGGCCUGAUGAGUCCGUGAGGACGAAACAG [G5U U19C] | 0.396 |
| ACCGUAUGUGCUUUCCGGGCUGAUGAGUCCGUGAGGACGAAACAG [G5U U19G] | 0.379 |
| ACCGUAUGUGCUUUCCGGUCAGAUGAGUCCGUGAGGACGAAACAG [G5U U21A] | 0.45 |
| ACCGUAUGUGCUUUCCGGUCCGAUGAGUCCGUGAGGACGAAACAG [G5U U21C] | 0.668 |
| ACCGUAUGUGCUUUCCGGUCGGAUGAGUCCGUGAGGACGAAACAG [G5U U21G] | 0.419 |
| ACCGUAUGUGCUUUCCGGUCUGAAGAGUCCGUGAGGACGAAACAG [G5U U24A] | 0.809 |
| ACCGUAUGUGCUUUCCGGUCUGACGAGUCCGUGAGGACGAAACAG [G5U U24C] | 0.922 |
| ACCGUAUGUGCUUUCCGGUCUGAGGAGUCCGUGAGGACGAAACAG [G5U U24G] | 0.636 |
| ACCGUAUGUGCUUUCCGGUCUGAUGAGACCGUGAGGACGAAACAG [G5U U28A] | 0.361 |
| ACCGUAUGUGCUUUCCGGUCUGAUGAGCCCGUGAGGACGAAACAG [G5U U28C] | 0.458 |
| ACCGUAUGUGCUUUCCGGUCUGAUGAGGCCGUGAGGACGAAACAG [G5U U28G] | 0.376 |
| ACCGUAUGUGCUUUCCGGUCUGAUGAGUCCGAGAGGACGAAACAG [G5U U32A] | 0.795 |
| ACCGUAUGUGCUUUCCGGUCUGAUGAGUCCGCGAGGACGAAACAG [G5U U32C] | 0.822 |
| ACCGUAUGUGCUUUCCGGUCUGAUGAGUCCGGGAGGACGAAACAG [G5U U32G] | 0.367 |
| ACCGGCUGUGCUUUCCGGUCUGAUGAGUCCGUGAGGACGAAACAG [A6C] | 0.722 |
